Test results: patent publication US20070078102A1, “NF-kB oligonucleotide decoy molecules” (published 2007)

Experiments:
[1] = molecular target: NF-kB p65/p50 heterodimer (RelA/NFKB1) (Homo sapiens, UniProt Q04206;P19838 Q04206:1-551,P19838:1-433); assay: EMSA; competition vs 32P 113/114 probe; conditions: protein: extract; tags: none; nuclear extract of LPS-stimulated THP-1 cells
Source text: (§1) The EMSA assay was employed to characterize oligonucleotide decoys for the NF-κB transcription factor. […] Using the above modified oligonucleotides to compete for binding for the above-mentioned NF-κB family members, it was possible to compare the binding affinity of these oligonucleotides against the high affinity radiolabeled probe and each other. This assay has also enabled the design of a decoy which selectively binds particular members of the NF-κB family. By using increasing concentrations of various oligonucleotides, it was observed that, by deleting or changing targeted residues in the binding site, it was possible to specifically decrease the binding of the decoy molecule to p50/p50 homodimers, while retaining the affinity for p65/p50 and cRel/p50 heterodimers.
(§2) The NF-κB gel shift assays (EMSA) were performed as follows. A double-stranded oligonucleotide containing a consensus NF-κB binding site (5′ […] 3′) (SEQ ID NO: 78) was end-labeled with γ³²P-ATP using T4 Polynucleotide Kinase (Promega). Alternatively, a double-stranded ODN containing a consensus NF-κB binding site from the IL-6 promoter (5′ […] 3′) (SEQ ID NO: 94) was end-labeled with γ³²P-ATP using T4 Polynucleotide Kinase (Promega). One microgram of a nuclear extract prepared from LPS stimulated THP-1 cells (human monocyte cell line) was incubated with 35 fmol of radiolabeled probe in the presence or absence of competing unlabeled NF-κB double-stranded oligonucleotides (dsODN) or scrambled dsODN. The incubations were carried out at room temperature for 30 minutes in a 20 μl reaction volume composed of 10 mM Tris-HCl pH 8, 100 mM KCL, 5 mM MgCl2, 2 mM DTT, 10% Glycerol, 0.1% NP-40, 0.025% BSA and 1 μg Poly-dIdC. The reactions were loaded onto a 6% polyacrylamide gel, subjected to electrophoresis and dried. The dried gels were imaged and quantitated using a Typhoon 8600 PhosphorImager (Amersham) and ImageQuant software.

[2] = molecular target: NF-kB p50/p50 homodimer (NFKB1) (Homo sapiens, UniProt P19838 P19838:1-433); assay: EMSA; competition vs 32P 113/114 probe; conditions: protein: extract; tags: none; nuclear extract of LPS-stimulated THP-1 cells; chain copies: 2 (stated homodimer)
NF-kB p50/p50 homodimer (NFKB1), sequence (P19838 1-433, one chain of several): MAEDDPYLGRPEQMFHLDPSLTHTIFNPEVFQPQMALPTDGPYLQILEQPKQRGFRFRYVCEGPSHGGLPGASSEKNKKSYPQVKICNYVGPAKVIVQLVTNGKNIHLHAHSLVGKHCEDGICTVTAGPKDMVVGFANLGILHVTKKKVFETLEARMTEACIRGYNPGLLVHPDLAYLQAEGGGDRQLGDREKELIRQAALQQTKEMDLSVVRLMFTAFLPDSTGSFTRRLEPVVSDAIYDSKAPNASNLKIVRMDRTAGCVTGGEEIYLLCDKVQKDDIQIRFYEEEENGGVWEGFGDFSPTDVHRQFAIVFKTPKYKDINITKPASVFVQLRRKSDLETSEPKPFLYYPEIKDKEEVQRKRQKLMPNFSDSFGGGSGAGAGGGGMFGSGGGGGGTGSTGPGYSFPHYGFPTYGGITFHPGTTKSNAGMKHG
Source text: as §1, §2

NF-kB p65/p50 heterodimer (RelA/NFKB1), sequence (Q04206 whole entry, chain 1 of 2): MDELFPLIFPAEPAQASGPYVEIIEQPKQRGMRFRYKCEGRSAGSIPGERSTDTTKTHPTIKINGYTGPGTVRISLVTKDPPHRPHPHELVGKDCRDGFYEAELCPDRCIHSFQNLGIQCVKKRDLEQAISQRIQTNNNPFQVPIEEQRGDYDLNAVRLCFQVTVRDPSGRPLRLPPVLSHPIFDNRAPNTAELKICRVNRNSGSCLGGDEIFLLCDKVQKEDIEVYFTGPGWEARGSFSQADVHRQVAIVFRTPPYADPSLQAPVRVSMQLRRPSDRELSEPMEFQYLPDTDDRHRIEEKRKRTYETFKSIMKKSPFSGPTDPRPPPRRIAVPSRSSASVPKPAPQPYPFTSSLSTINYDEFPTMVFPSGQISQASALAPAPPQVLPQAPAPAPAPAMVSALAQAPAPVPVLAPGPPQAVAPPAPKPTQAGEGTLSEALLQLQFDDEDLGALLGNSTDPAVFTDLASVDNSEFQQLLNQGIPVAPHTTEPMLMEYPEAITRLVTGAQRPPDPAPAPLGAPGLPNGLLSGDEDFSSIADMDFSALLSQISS
NF-kB p65/p50 heterodimer (RelA/NFKB1), sequence (P19838 1-433, chain 2 of 2): as the sequence (P19838 1-433, one chain of several) above

Row | Binder | IC50 [1] [fold molar excess] | IC50 [2] [fold molar excess]
1 | decoy 177 E-W (dsDNA) DNA 1: CTCGGACTTTCCTGT DNA 2: ACAGGAAAGTCCGAG | 57.5 | 
2 | 153/154 H10/H8 (dsDNA, PS at the 10 (153) and 8 (154) 3'-most linkages) DNA 1: AGTTGAGGACTTTCCAGGC DNA 2: GCCTGGAAAGTCCTCAACT | 9 | 
3 | decoy 195 C-V (dsDNA) DNA 1: TCGGGGACTTTCCCTC DNA 2: GAGGGAAAGTCCCCGA | 8.5 | 9
4 | decoy 289 (dsDNA) DNA 1: TGAGGACTTTCCAGGC DNA 2: GCCTGGAAAGTCCTCA | 93 | 
5 | 153/154 PO/PS (dsDNA, strand 153 PO; strand 154 full PS) DNA 1: AGTTGAGGACTTTCCAGGC DNA 2: GCCTGGAAAGTCCTCAACT | 5 | 5
6 | 153/154 H3/H3 (dsDNA, PS at the 3 3'-most linkages of each strand) DNA 1: AGTTGAGGACTTTCCAGGC DNA 2: GCCTGGAAAGTCCTCAACT | 45 | 
7 | decoy 235 L-V (dsDNA) DNA 1: TCGGACTTTCCCTC DNA 2: GAGGGAAAGTCCGA | 37 | 62.5
8 | decoy 239 C-W' (dsDNA) DNA 1: CTCGGGGACTTTCCCTCA DNA 2: TGAGGGAAAGTCCCCGAG | 9 | 9
9 | decoy 173 E-Z-4 (dsDNA) DNA 1: TTGAGGACTTTCCAG DNA 2: CTGGAAAGTCCTCAA | 55 | 
10 | 153/154 H5/H5 (dsDNA, PS at the 5 3'-most linkages of each strand) DNA 1: AGTTGAGGACTTTCCAGGC DNA 2: GCCTGGAAAGTCCTCAACT | 50 | 
11 | 153/154 H5/PO (dsDNA, strand 153 PS at the 5 3'-most linkages; strand 154 PO) DNA 1: AGTTGAGGACTTTCCAGGC DNA 2: GCCTGGAAAGTCCTCAACT | 59 | 
12 | decoy 263 H-Z (dsDNA) DNA 1: AGTTGAGGATTTCCAGGC DNA 2: GCCTGGAAATCCTCAACT | 73 | 82
13 | decoy 259 E-Z' (dsDNA) DNA 1: TTGAGGACTTTCCAGGCTC DNA 2: GAGCCTGGAAAGTCCTCAA | 87 | 85
14 | decoy 265 I-Z (dsDNA) DNA 1: AGTTGAGGATTTCCCAGGC DNA 2: GCCTGGGAAATCCTCAACT | 54 | 84
15 | decoy 117 E-U (dsDNA) DNA 1: ATGGACTTTCCGT DNA 2: ACGGAAAGTCCAT | 72.5 | 
16 | 153/154 PO/H11 (dsDNA, strand 153 PO; strand 154 PS at the 11 3'-most linkages) DNA 1: AGTTGAGGACTTTCCAGGC DNA 2: GCCTGGAAAGTCCTCAACT | 7.5 | 40
17 | 153/154 H11/H11 (dsDNA, PS at the 11 3'-most linkages of each strand) DNA 1: AGTTGAGGACTTTCCAGGC DNA 2: GCCTGGAAAGTCCTCAACT | 24 | 27
18 | decoy 309 M-T (dsDNA) DNA 1: CCTTGAAGGGATTTCCCTCC DNA 2: GGAGGGAAATCCCTTCAAGG | 45 | 50
19 | decoy 281 E-Z EVEN (dsDNA) DNA 1: TTGAGGACTTTCCAGGC DNA 2: GCCTGGAAAGTCCTCAA | 87 | 
20 | decoy 197 C-W (dsDNA) DNA 1: CTCGGGGACTTTCCCTGT DNA 2: ACAGGGAAAGTCCCCGAG | 26 | 17.5
21 | 153/154 H4/H4 (dsDNA, PS at the 4 3'-most linkages of each strand) DNA 1: AGTTGAGGACTTTCCAGGC DNA 2: GCCTGGAAAGTCCTCAACT | 85 | 
22 | decoy 207 L-Z (dsDNA) DNA 1: AGTTGAGGACTTTCCCAGGC DNA 2: GCCTGGGAAAGTCCTCAACT | 20 | 45
23 | 153/154 PS/PO (dsDNA, strand 153 full PS; strand 154 PO) DNA 1: AGTTGAGGACTTTCCAGGC DNA 2: GCCTGGAAAGTCCTCAACT | 5 | 5

Row | Binder | IC50 [1] [fold molar excess] | IC50 [2] [fold molar excess]
24 | decoy 129 D-V (dsDNA) DNA 1: TCGGGATTTCCTC DNA 2: GAGGAAATCCCGA | 37.5 | 37.5
25 | decoy 123 A-W (dsDNA) DNA 1: CTCGGGACTTTCCTGT DNA 2: ACAGGAAAGTCCCGAG | 8 | 10
26 | decoy 121 A-V (dsDNA) DNA 1: TCGGGACTTTCCTC DNA 2: GAGGAAAGTCCCGA | 25 | 34
27 | 153/154 H10/H10 (dsDNA, PS at the 10 3'-most linkages of each strand) DNA 1: AGTTGAGGACTTTCCAGGC DNA 2: GCCTGGAAAGTCCTCAACT | 21 | 
28 | decoy 191 A-X (dsDNA) DNA 1: CTGGGACTTTCCTC DNA 2: GAGGAAAGTCCCAG | 19 | 22.5
29 | 153/154 H8/H10 (dsDNA, PS at the 8 (153) and 10 (154) 3'-most linkages) DNA 1: AGTTGAGGACTTTCCAGGC DNA 2: GCCTGGAAAGTCCTCAACT | 33 | 
30 | decoy 295 (dsDNA) DNA 1: TGAGGACTTTCCAGGCTC DNA 2: GAGCCTGGAAAGTCCTCA | 92 | 
31 | 153/154 H8/H8 (dsDNA, PS at the 8 3'-most linkages of each strand) DNA 1: AGTTGAGGACTTTCCAGGC DNA 2: GCCTGGAAAGTCCTCAACT | 29 | 
32 | decoy 279 E-Z A->C EVEN (dsDNA) DNA 1: TTGCGGACTTTCCAGGC DNA 2: GCCTGGAAAGTCCGCAA | 48 | 52
33 | decoy 227 H-V (dsDNA) DNA 1: TCGGATTTCCTC DNA 2: GAGGAAATCCGA | 74 | 
34 | 153/154 H11/PO (dsDNA, strand 153 PS at the 11 3'-most linkages; strand 154 PO) DNA 1: AGTTGAGGACTTTCCAGGC DNA 2: GCCTGGAAAGTCCTCAACT | 7.5 | 
35 | 153/154 PO/H5 (dsDNA, strand 153 PO; strand 154 PS at the 5 3'-most linkages) DNA 1: AGTTGAGGACTTTCCAGGC DNA 2: GCCTGGAAAGTCCTCAACT | 65 | 
36 | 153/154 H9/H9 (dsDNA, PS at the 9 3'-most linkages of each strand) DNA 1: AGTTGAGGACTTTCCAGGC DNA 2: GCCTGGAAAGTCCTCAACT | 17 | 
37 | decoy 145 A-Z (dsDNA) DNA 1: AGTTGAGGGACTTTCCAGGC DNA 2: GCCTGGAAAGTCCCTCAACT | 8 | 8
38 | decoy 155 E-V (dsDNA) DNA 1: TCGGACTTTCCTC DNA 2: GAGGAAAGTCCGA | 81 | 97
39 | decoy 153/154 E-Z (dsDNA) DNA 1: AGTTGAGGACTTTCCAGGC DNA 2: GCCTGGAAAGTCCTCAACT | 62.4 | 96
40 | decoy 141 A-Z-2 (dsDNA) DNA 1: GTTGAGGGACTTTCCAGG DNA 2: CCTGGAAAGTCCCTCAAC | 7.5 | 10
41 | decoy 221 C-X (dsDNA) DNA 1: CTGGGGACTTTCCCTC DNA 2: GAGGGAAAGTCCCCAG | 25 | 25
42 | decoy 151 D-Z (dsDNA) DNA 1: AGTTGAGGGATTTCCAGGC DNA 2: GCCTGGAAATCCCTCAACT | 36 | 69
43 | 153/154 H6/H6 (dsDNA, PS at the 6 3'-most linkages of each strand) DNA 1: AGTTGAGGACTTTCCAGGC DNA 2: GCCTGGAAAGTCCTCAACT | 40 | 
44 | 153/154 PO (dsDNA, full phosphodiester, both strands) DNA 1: AGTTGAGGACTTTCCAGGC DNA 2: GCCTGGAAAGTCCTCAACT | 58 | 92
45 | 153/154 PS/PS (dsDNA, full PS, both strands) DNA 1: AGTTGAGGACTTTCCAGGC DNA 2: GCCTGGAAAGTCCTCAACT | 5 | 
46 | 153/154 H7/H7 (dsDNA, PS at the 7 3'-most linkages of each strand) DNA 1: AGTTGAGGACTTTCCAGGC DNA 2: GCCTGGAAAGTCCTCAACT | 39 | 
